Test results from FireProtDB (doi:10.1021/bi961660c).
Several values for one entry are separate records, joined by “and”; a condition that tells them apart may be missing. Equal values may be shown once.

B1: Tryptophan synthase alpha chain, P0A877 (parent)
chain: MERYESLFAQLKERKEGAFVPFVTLGDPGIEQSLKIIDTLIEAGADALELGIPFSDPLADGPTIQNATLRAFAAGVTPAQCFEMLALIRQKHPTIPIGLLMYANLVFNKGIDEFYAQCEKVGVDSVLVADVPVEESAPFRQAALRHNVAPIFICPPNADDDLLRQIASYGRGYTYLLSRAGVTGAENRAALPLNHLVAKLKEYNAAPPLQGFGISAPDQVKAAIDAGAAGAISGSAIVKIIEQHINEPEKMLAALKVFVQPMKAATRS

Variants of: B1
Conditions: Escherichia coli (strain K12), pH 7, 25 °C, GdnHCl, CD, Tris-HCl 20 mM, reversible: yes, structure 1WQ5, whole UniProt chain shown

Variant | ddG of mutation (higher = less stable) [kcal/mol] | unfolding free energy [kcal/mol] | unfolding free energy (transition: 3) | ddG of mutation (higher = less stable) (transition: 3)
P28A | 1.91 | 6.29 | 2.27 kcal/mol and 4.04 kcal/mol | –
P57A | 0.48 | 7.73 | 4 kcal/mol and 3.76 kcal/mol | 0.24 kcal/mol
P96A | 2.13 | 6.08 | 2.63 kcal/mol and 3.44 kcal/mol | 1.6 kcal/mol and 0.55 kcal/mol
P207A | – | – | 2.44 kcal/mol and 4.62 kcal/mol | –
P132A | 1.05 | 7.15 | 3.33 kcal/mol and 3.85 kcal/mol | –
P62A | 0.31 | 7.89 | 3.54 kcal/mol and 4.35 kcal/mol | –
